Assay [1] deals with T1, human CD40-Fc protein (amino acid residue 21-193 of SEQ ID NO: 67 linked to N-terminus of amino acid residue … (human, biotin-labeled in the capture ELISA and in the benchmark blocking ELISA; unlabeled when coated in the ligand blocking ELISA).
T1 construct: also called biotin-labeled human CD40-Fc; human CD40-Fc-biotin
Description: ligand blocking ELISA: human CD40-Fc coated, antibody titrated, then biotin-labeled human CD40L-his (blocked ligand), streptavidin-HRP, OD(450-630). On the procedure:
Briefly, human CD40-Fc proteins (amino acid residue 21-193 of SEQ ID NO: 67 linked to N-terminus of amino acid residue 99-330 of SEQ ID NO.: 24) were coated on 96-well micro plates at 2 μg/mL in coating buffer (PBS) and incubated overnight at 4° C. The next day, plates were washed with wash buffer (PBS+0.05% Tween-20, PBST), and blocked with 5% w/v non-fatty milk in PBST for 2 hours at 37° C. Plates were then washed again using wash buffer.
Serially diluted the mouse anti-CD40 antibodies of the present invention or the controls (starting at 200 nM with a four-fold serial dilution) in 2.5% w/v non-fatty milk in PBST were prepared to the plates and incubated with the human CD40-Fc proteins at room temperature for 40 minutes. […] Plates were washed again. 100 μl/well of streptavidin conjugated HRP was added and incubated for 40 minutes at 37° C. Plates were washed again using wash buffer. Finally, TMB was added and the reaction was stopped using 1M H₂SO₄, and the absorbance was read at 450 nm. Data were analyzed using Graphpad Prism software and IC₅₀ values were reported.

Assay [2] deals with T1, human CD40-Fc protein (amino acid …). The experiment in a line: capture ELISA, biotin human CD40-Fc; mAb at 3.2 ng/mL. Here is the method:
Plates were washed 4 times with wash buffer (PBS+0.05% Tween-20, PBST) and then blocked with 200 μl/well blocking buffer (5% w/v non-fatty milk in PBST) for 2 hours at 37° C. […] After a final wash, plates were incubated with 100 μl/well ELISA substrate TMB (Innoreagents, Cat # TMB-S-002). The reaction was stopped in 15 minutes at 25° C. with 50 μl/well 1M H₂SO₄, and the absorbance was read at 450 nm and plotted against antibody concentration. Data were analyzed using Graphpad Prism software and EC₅₀ values were reported.
A general note: In an ELISA, binding on a coated surface is turned into a signal by an enzyme label.

Assay [3] deals with T2, full length human CD40 (uniprot # P25942-1) on the membrane of 293T-CD40 cells (human, UniProt P25942 21-277). Description: cell-based or functional assay.
In assay [4] the target is T2, full length human CD40 (uniprot # …). Description: flow cytometry on 293T-CD40 cells. Here is the method:
(§1) 2×10⁵ cells per well in 96 well-plates were incubated with the mouse anti-CD40 antibodies or the controls of various concentrations in FACS buffer for 40 minutes on ice. […] Following an incubation of 40 minutes at 4° C. in dark, cells were washed three times and resuspended in FACS buffer. Fluorescence was measured using a Becton Dickinson FACS Canto II-HTS equipment and plotted against antibody concentration.
Background: A flow cytometer gives signals particle by particle.

Assay [5] has as its target T3, Human CD40-his protein (Acro biosystems, Cat # CD0-H5228) (human, UniProt P25942 21-193).
T3 construct: Bought reagent; not shown: his tag
Description: SPR, Biacore T200; antibody captured, antigen flowed; 1:1 Langmuir fit. The text has this: (§2) Briefly, goat anti-mouse IgG (GE healthcare, Cat # BR100838, Mouse Antibody Capture Kit) was covalently linked to a CM5 or a Protein G chip (carboxy methyl dextran coated chip) via primary amines, using a standard amine coupling kit provided by Biacore (GE healthcare, Pittsburgh, Pa., USA). Un-reacted moieties on the biosensor surface were blocked with ethanolamine. […] Then, human CD40-his (Acro biosystems, Cat # CD0-H5228) or cynomolgus monkey CD40-his protein (Acro biosystems, Cat # CD0-052H6) in HBS EP buffer (provided by Biacore) was flowed onto the chip at a flow rate of 30 μL/min. The antigen-antibody association kinetics was followed for 2 minutes and the dissociation kinetics was followed for 10 minutes. The association and dissociation curves were fit to a 1:1 Langmuir binding model using BIA evaluation software.

For assay [6], the target named is T4, cynomolgus monkey CD40-his protein (Acro biosystems, Cat # CD0-052H6) (cynomolgus monkey, UniProt G7PG38 21-193).
T4 construct: Bought reagent; also called Cynomolgus CD40-his
Described as above.
Source text: as §2

Assay [7] addresses T1, human CD40-Fc protein (amino acid …). Description: competitive ELISA; biotin human CD40-Fc in solution, competitor coated BM2. Here is the method:
The ability of the mouse anti-CD40 antibodies of the present invention to block the binding of the Benchmark to human CD40 was measured using a competitive ELISA assay. […] The next day, plates were washed with wash buffer, and blocked with 5% w/v non-fatty milk in PBST for 2 hours at 37° C. Plates were then washed again using wash buffer. […] After incubation at 37° C. for 40 minutes, plates were washed 4 times using wash buffer. Then streptavidin conjugated HRP was added and incubated for 40 minutes at 37° C. to detect biotin-labeled human CD40-Fc bound to plates. Plates were washed again using wash buffer. Finally, TMB was added and the reaction was stopped using 1M H₂SO₄, and the absorbance was read at 450 nm. Data were analyzed using Graphpad Prism software and IC₅₀ values were reported.

In assay [8] the target is T2, full length human CD40 (uniprot # …). Description: flow cytometry on 293T-CD40 cells, PE-labeled secondary antibody, MFI. Here is the method: as §1
Assay [9] shares this target. Described as above. On the procedure:
as §1
This is another data set of the same source.

The values below come from patent US20200332017A1 (SALUBRIS CHENGDU BIOTECH, published 2020).

Like-named read-outs stand apart in the source and are kept apart here.

One may read the EC50 as the concentration needed to bring the measured effect to its halfway point. As usually defined, the Kd is the concentration at which binding is half-saturated. The term koff denotes the rate constant with which the complex falls apart. For orientation: kon means a measure of how fast the partners come together. For orientation: IC50 means the point on the concentration scale where inhibition reaches its midpoint. For orientation: EC50 (read off the curve) means the concentration giving half of the maximal effect.

B1: mouse anti-CD40 monoclonal antibody C1C1 (antibody, V domains shown)
VH: EVKLVESGGGLVKPGASLKLSCAASGFTFSNYGMSWVRQNSDKRLEWVASISSGGDDTYYPDNVKGRCTISRENAKNTLYLEMSSLKTEDTALYYCTRAGGKAMDYWGQGTSVTVST
VL: DIVLTQSPATLSVIPGNSVSLSCRASQSIRDNLHWYQQKSHESPRLLINYASQSISGIPSRFSGSGSGTDFTLTINSVETEDFGIYFCQQFNSWPLTFGGGTKLELK
notes: those are used here for the chimeric antibody only; also called Mouse C1C1; mouse C1C1
For the molecule B1, the “IC50 (read off the curve)” value in assay [1] was roughly 5 nM. Besides, the “absorbance at 450 nm” value in [2] stood at 0.288 OD450. Also, in assay [3], the “Cell-based Reporter assay (EC50, nM)” value came out at 3.65 nM. The molecule also came in with an EC50 in assay [4] of 0.538 nM. In assay [5], this molecule displayed a Kd of 0.217 nM, a koff of 0.000542 s⁻¹ and a kon of 2.49e+06 M⁻¹ s⁻¹. In assay [6], this molecule registered a Kd of 0.486 nM, a koff of 0.00119 s⁻¹ and a kon of 2.45e+06 M⁻¹ s⁻¹. The same molecule returned an IC50 in assay [7] of 0.461 nM. The “EC50 (read off the curve)” value in [8] is roughly 0.5 nM. Also, in [9], the “EC50 (read off the curve)” value is roughly 300 ng/mL.

B2: chimeric antibody C1C1 (antibody, human IgG1, kappa, V domains shown)
VH: EVKLVESGGGLVKPGASLKLSCAASGFTFSNYGMSWVRQNSDKRLEWVASISSGGDDTYYPDNVKGRCTISRENAKNTLYLEMSSLKTEDTALYYCTRAGGKAMDYWGQGTSVTVST
VL: DIVLTQSPATLSVIPGNSVSLSCRASQSIRDNLHWYQQKSHESPRLLINYASQSISGIPSRFSGSGSGTDFTLTINSVETEDFGIYFCQQFNSWPLTFGGGTKLELKR
notes: also called chC1C1; chimeric C1C1
For the molecule B2, in [2], the “absorbance at 450 nm” value came out at 0.082 OD450. The same molecule gave an IC50 in assay [7] of 0.126 nM. Moreover, the “EC50 (read off the curve)” value in assay [9] is roughly 300 ng/mL.
